Columns and labels:
[1] = Singlet Oxygen Sensor Green assay with UV-exposed porphyrins; assay type: biochemical; conditions: 1 μM Coproporphyrin III or Protoporphyrin IX, 10 min UV lamp, varying amounts of RoxP
Protocol: The Singlet Oxygen Sensor Green dye was dissolved in Methanol and added in PBS buffer to reach a final concentration of 0.4 μM. This solution was distributed in a clear 96 well plate. To the wells 1 μM Coproporphyrin III, or 1 μM Protoporphyrin IX was added. Then varying amounts of RoxP were added. Each condition was set up as 4 replicas. Two of the replicas were covered by aluminium foil during the exposure, while two wells were exposed for 10 min to a UV lamp. After exposure, the fluorescence of the Singlet Oxygen Sensor Green dye was read out indicating the amount of singlet oxygen generated.

Ferrozine assay = assay type: biochemical; conditions: incubation 17 hours
Protocol: The reagents used in the ferrozine assay included 100 μl of 50 mM iron ammonium dodecahydrate, 100 μl 2 mM ferrozine in H2O, and RoxP (50 μl) resulting in various RoxP concentrations indicated in the graph, diluted from a stock solution of 2 mg/ml RoxP in PBS. Incubation was Incubation 17 hours.

HaCat cells = assay: MTT viability assay, paraquat oxidative stress, keratinocytes; assay type: cell-based, human
Protocol: (§1) Human keratinocytes (HaCat cells; disclosed in Boukamp et al. 1988 J Cell Biol 106:761-71 and available from Deutsches Krebsforschungszentrum, DKFZ, info@cell-lines-service.de; and also commercially available for example from Addexbio, San Diego, Calif., catalogue number T0020001) were grown in SFM medium supplemented with L-glutamine, EGF (epidermal growth factor) and bovine pituitary extract (Gibson, Invitrogen) until 90% confluency in 96-well plates (Nunc A/S, Roskilde, Denmark). Human monocytes (THP-1 cells; disclosed in Tsuchiya et al. 1980 Int J Cancer 26:171-6; commercially available for example from Sigma-Aldrich, catalogue number 88081201; kindly provided by Dr Arne Egesten, Lund University) were cultured in RPMI 1640 medium supplemented with Glutamax-1 (Gibco®, ThermoFisher Scientific), 100 μg/ml streptomycin, 100 μg/ml penicillin, and 10% v/v foetal calf serum (ThermoFisher Scientific). All cells were grown at 37° C. in 5% CO2 and 95% humidity.
(§2) HaCat cells cultured to 90% confluency, or THP-1 cells (1.2×10^6 cells/well) in a 96-well plate were treated with 2 mM paraquat (Sigma-Aldrich) and/or 5 μM RoxP for 24-48 h. […] Viability was measured by the addition of 0.5 mg/ml 3-(4,5-demethylthiazol-2-yl)-2,5-diphenyltetrazolium bromide (MTT) for 1-5 hours. […] The samples incubated for 30 minutes and absorbance at 550 nm was measured using a Wallac 1420 Multilabel Counter ([…]). […]

[2] = ABTS radical cation assay; assay type: biochemical
Protocol: FIG. 4: RoxP antioxidant activity under adverse conditions. The ability of RoxP to reduce ABTS radical cations, denoted by a decrease in absorbance at 734 nm, was tested in multiple settings. Different concentrations of recombinant RoxP (rRoxP) (0.2-3.2 μM) in sodium phosphate buffer (20 mM, pH 7.4) (A), rRoxP (2.7 μM) incubated with salt solutions (B), pre-heated rRoxP (2.7 μM) incubated for 20 min in temperatures ranging from RT to 98° C. and allowed to cool down to ambient temperature prior to activity measurements (C), or rRoxP (2 μM) stored at room temperature for up to 2 weeks (D) were added to a solution of pre-formed ABTS radicals and the absorbance recorded after 30 sec.
The reduction of pre-formed ABTS radical cations in the presence of RoxP was analysed using a spectrophotometric assay previously described by Re et al. (1999 Free Radic Biol Med 26:1231-1237). 2,2′-azinobis(3-ethylbenzothiazoline-6-sulfonic acid) diammonium salt (ABTS) (Sigma-Aldrich) was initially dissolved in ddH2O to a concentration of […]. Potassium persulfate (Merck KGaA, Darmstadt, Germany) was subsequently added to a final concentration of 2.45 mM and the resulting solution kept dark and incubated overnight at RT. Formed ABTS radicals were diluted with PBS (pH 7.4) until reaching an absorbance of approximately 0.7 at 734 nm. Antioxidants (1.7 μM) were added (1:9 v/v) and the absorbance spectrum 500 to 900 nm recorded after 30 sec.

THP-1 cells = assay: MTT viability assay, paraquat oxidative stress, monocytes; assay type: cell-based, human
Protocol: as §1, §2

Lyophilisation of RoxP = assay type: physicochemical; conditions: RoxP dissolved in water, absence of further excipients
Text: Lyophilisation of proteins is also a well-established procedure in the art and typically employs an aqueous solution of the protein to be lyophilised, optionally admixed with one or more suitable lyophilisation excipients, such as trehalose, sucrose, raffinose, maltodextrin, mannitol, and/or dextran. […] The inventors have additionally observed that mannitol, and particularly 2-6% w/v, preferably 2-5% w/v, more preferably 2-4% w/v, or even more preferably 2-3% w/v mannitol (relative to the volume of the solution to be lyophilised) was especially advantageous for production of stable cake and preservation of RoxP activity.

B1: RoxP: radical oxygenase of Propionibacterium acnes, secreted antioxidant protein of C. acnes; SEQ ID NO: 1 for strain KPA171202 (protein)
chain: MFVQIAASLAAASSIALGIPGAATPIDESQLPVGPQVSVTDSAQHTGPFAASSPLTITVKPGAPCVRADGYQESMVTRVLDDKGHQVWTGTFDESKLIGGTGLGTATFHVGSPAAAFNFHGSERTTYRTLSYCAYPHYVNGTRERLSQVSVKTFMVDPALN
modifications: Cutibacterium acnes
[1]
  generation of radicals formed through the porphyrins (singlet oxygen): efficiently inhibited
Ferrozine assay
  reduction of Fe^3+ to Fe^2+: confirmed reduction of Fe^3+ to Fe^2+
HaCat cells; 2 mM paraquat, 5 μM RoxP (1:400 RoxP:oxidizer), 24 h, responded less well
  effect on negative oxidative effect of paraquat (cell viability): completely inhibited
HaCat cells; no paraquat
  overall viability in the absence of an added oxidizer: increase the overall viability
[2]; RoxP 2 mg/ml 10 μl, FMN/FDN 1 mM 1 μl or 3 μl, especially FDN
  reduction of ABTS radical when FMN/FDN was added: increased reduction
[2]; rRoxP 2 μM stored at room temperature for up to 2 weeks
  activity after long-term storage at room temperature: able to endure
[2]; rRoxP 2.7 μM incubated with salt solutions
  antioxidant activity in presence of CaCl2: loss of activity
[2]; rRoxP 2.7 μM pre-heated 20 min, RT to 98° C., cooled before measurement
  temperature endured without any significant loss of activity: above 70 °C
[2]; rRoxP 2.7 μM, physiological concentrations of NaCl
  antioxidant activity in presence of NaCl: withstood
[2]; rRoxP 0.2-3.2 μM, sodium phosphate buffer 20 mM pH 7.4
  reducing activity on ABTS radical cations: concentration-dependent reducing activity
THP-1 cells; 2 mM paraquat, 5 μM RoxP (1:400 RoxP:oxidizer), 48 h, effect more prominent than in keratinocytes
  effect on negative oxidative effect of paraquat (cell viability): completely inhibited
THP-1 cells; no paraquat
  overall viability in the absence of an added oxidizer: increase the overall viability
Lyophilisation of RoxP
  preservation of RoxP activity after lyophilisation: satisfactorily preserved the activity

— patent US20220000762A1, “COMPOSITIONS FOR TREATING OXIDATIVE STRESS-ASSOCIATED SKIN DISEASES AND SKIN AGEING AND DIAGNOSIS OF OXIDATIVE STRESS-ASSOCIATED SKIN DISEASES” (priority 2019, published 2022)
